Where no end group is shown, it is not given here. Fuc = fucose (fucosylation)
Assays:
[1] = biological target: Baculovirus-derived recombinant human urokinase receptor, truncated soluble molecule, biotinylated (human) (UniProt Q03405); assay: phage panning on biotinylated soluble uPAR on streptavidin plates; eluted cfu as a percentage of input; control phagemid
uPAR = uPAR (Homo sapiens, UniProt Q03405); settings: cited from earlier work
[2] = biological target: Baculovirus-derived recombinant human urokinase receptor, truncated soluble molecule, biotinylated (human) (UniProt Q03405); assay: phage panning on biotinylated soluble uPAR on streptavidin plates; eluted cfu as a percentage of input; control phage
[3] = biological target: Baculovirus-derived recombinant human urokinase receptor, truncated soluble molecule, biotinylated (human) (UniProt Q03405); assay: phage panning on biotinylated soluble uPAR on streptavidin plates; eluted cfu as a percentage of input
[4] = system: SaOS-2 osteosarcoma cell line; settings: cited from earlier work
[5] = biological target: Baculovirus-derived recombinant human urokinase receptor, truncated soluble molecule, biotinylated (human, UniProt Q03405, biotinylated with NHS-biotin); assay: radio-receptor competition assay: 125I-ATF tracer on biotinylated soluble uPAR immobilised on streptavidin plates
Protocol: Baculovirus-derived recombinant human urokinase receptor was expressed as a truncated, soluble molecule as described previously for mouse L-cells (Masucci et al., *J Biol Chem* (1991) 266:8655). The purified receptor was biotinylated with NHS-biotin, and immobilized at 1 μg/mL in PBS/0.1% BSA on streptavidin coated 96-well plates. Human uPA ATF (residues 1–135, obtained from M. Shuman, University of California, San Francisco) was iodinated using the Iodogen method (Pierce), and used as tracer. The ^125I-ATF was incubated at 100–500 pM with increasing amounts of huPA_1-48 in triplicate (100 pM-1 μM) for 2 hours at room temperature in 0.1% BSA/PBS in a total volume of 200 μL. The plates were then washed 3 times with PBS/BSA, and the remaining bound radioactivity determined.

Sequence of uPAR (Q03405 23-335): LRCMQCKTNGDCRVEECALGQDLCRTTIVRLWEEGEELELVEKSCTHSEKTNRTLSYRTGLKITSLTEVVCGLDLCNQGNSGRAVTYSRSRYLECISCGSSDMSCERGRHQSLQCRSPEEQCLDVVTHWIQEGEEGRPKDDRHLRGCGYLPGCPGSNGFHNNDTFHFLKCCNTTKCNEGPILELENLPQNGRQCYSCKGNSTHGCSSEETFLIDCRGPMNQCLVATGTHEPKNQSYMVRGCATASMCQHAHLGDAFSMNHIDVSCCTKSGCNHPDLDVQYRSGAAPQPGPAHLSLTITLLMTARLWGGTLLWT

## Phagemid pGMEGF displaying M1-FLAG-EGF-medium long pIII (from UniProt P01133)
[1]
  % Yield (+uPAR): 0.0012%

## uPA12-32: the critical domain alone, residues 12-32 of uPA (Appella et al.) (DCLNGGTCVSNKYFSNIHWCN; UniProt P00749 32-52, looked up, fragment)
uPAR; compared with intact ATF
  affinity relative to intact ATF (fold less): about 100 fold
uPAR; critical domain alone, read-out: affinity for uPAR
  Kd: 40 nM

## LP67 control phage (ampicillin-resistant M13)
[2]
  % Yield (+uPAR): 0.0099%

## Phagemid pHM1a displaying M1-FLAG-UPAELD-short pIII (M1Flag-uPA1-48) (from UniProt P00749)
[3]
  % Yield (+uPAR): 0.094%

## Phagemid pHM3a displaying Glu-tag-UPAELD-short pIII (Glutag-uPA1-48) (from UniProt P00749)
[3]
  % Yield (+uPAR): 0.08%

## fucosylated EGF-like domain: fucosylated EGF-like domain (uPA4-43, produced by cleavage from pro-uPA) (LHQVPSNCDCLNGGT(Fuc)CVSNKYFSNIHWCNCPKKFGGQHCE; cysteine pairing not given here; UniProt P00749 24-63, looked up, fragment)
[4]
  mitogenic activity: mitogenic

## SNELHQVPSNCDCLNGGTCVSNKYFSNIHWCNCPKKFGGQHCEIDKSK (ligand, ends and bridges not checked; cysteine pairing not given here)
[5]
  Kd: 0.3 nM

— patent US6248715A, “Method of treating a urokinase-type plasminogen activator-mediated disorder” (Chiron Corporation, priority 1995, dated 2001)
